Experiment [1] concerns the target HLA-A2.1 heavy chain with I125-labeled beta2-microglobulin (heterotrimer dissociation assay) (human). The experiment is described as follows: dissociation of I125-labeled beta2-microglobulin from the heavy chain/peptide/beta2-microglobulin complex, HPLC gel filtration. (In general: Size exclusion chromatography separates by hydrodynamic size, large species first.)

Experiment [2] addresses HLA-A2.1 (HLA-A*0201) on the surface of T2 cells (human). The experiment is described as follows: peptide-binding assay, stabilisation of HLA-A2 on the surface of T2 cells, fluorescence intensity relative to PR1.

Consider “HTLV-1 Tax peptide (aa 11-19) (from UniProt P03409 11-19) (peptide; other documents disagree on this pair)”, for which the T1/2 in experiment [1] came to 133 h.

In experiment [2], “CCNE1144-152 (cyclin E1 derived nonameric peptide) (from UniProt P24864 144-152)” showed an FI CCNE1144-152/FI PR1 of 1.01.

Source of the values: patent US20060045883A1, “Anti-cancer vaccines” (priority 2004, published 2006).
